Reference: US20140087995A1 (published 2014)
Numbered stars: 1 amine (or outer) side, 2 acyl side, 3 side chain; on linkers, the order of the positions; unused ones are H or OH. Bridge positions count the residues as written; N and C are the ends. Side chains are listed from the residue outwards. Ends that are not written are not given here. * marks the point of attachment. C20 diacid = O=C(O)CCCCCCCCCCCCCCCCCCC(=O)*; γGlu = O=C(O)[C@H](CCC(=O)[*:2])N[*:1]; AEEA = NCCOCCOCC(=O)O

T1: rat amylin receptor (rat calcitonin receptor + rat RAMP 3) (rat, UniProt P32214 25-516; Q9JJ73 23-147)
T1 construct: whole, on cells; Membranes prepared from transiently transfected BHK tk'ts 13 cells; also called rAmylin-R; rat amylin 3(a) receptor
T1 sequence (looked up) 1: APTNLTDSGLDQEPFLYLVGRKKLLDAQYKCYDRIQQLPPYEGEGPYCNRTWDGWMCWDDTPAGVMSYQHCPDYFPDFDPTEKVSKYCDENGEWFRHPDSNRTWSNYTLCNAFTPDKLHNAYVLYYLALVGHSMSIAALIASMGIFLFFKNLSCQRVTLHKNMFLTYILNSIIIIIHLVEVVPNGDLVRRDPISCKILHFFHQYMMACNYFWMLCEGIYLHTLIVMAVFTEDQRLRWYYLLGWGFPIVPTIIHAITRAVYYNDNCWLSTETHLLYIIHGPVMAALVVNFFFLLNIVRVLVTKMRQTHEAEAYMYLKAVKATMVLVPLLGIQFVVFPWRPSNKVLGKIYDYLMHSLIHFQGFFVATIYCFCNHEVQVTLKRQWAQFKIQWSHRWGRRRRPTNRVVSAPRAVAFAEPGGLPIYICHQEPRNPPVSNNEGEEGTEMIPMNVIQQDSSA
T1 sequence (looked up) 2: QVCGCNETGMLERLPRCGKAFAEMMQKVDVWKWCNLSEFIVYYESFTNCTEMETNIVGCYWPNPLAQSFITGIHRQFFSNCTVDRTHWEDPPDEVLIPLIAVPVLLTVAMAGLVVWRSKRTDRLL

T2: rat calcitonin receptor (rat, UniProt P32214 25-516)
T2 construct: whole, on cells; Membranes prepared from transiently transfected BHK tk'ts 13 cells; also called rCTR; rat calcitonin (a) receptor
T2 sequence (looked up): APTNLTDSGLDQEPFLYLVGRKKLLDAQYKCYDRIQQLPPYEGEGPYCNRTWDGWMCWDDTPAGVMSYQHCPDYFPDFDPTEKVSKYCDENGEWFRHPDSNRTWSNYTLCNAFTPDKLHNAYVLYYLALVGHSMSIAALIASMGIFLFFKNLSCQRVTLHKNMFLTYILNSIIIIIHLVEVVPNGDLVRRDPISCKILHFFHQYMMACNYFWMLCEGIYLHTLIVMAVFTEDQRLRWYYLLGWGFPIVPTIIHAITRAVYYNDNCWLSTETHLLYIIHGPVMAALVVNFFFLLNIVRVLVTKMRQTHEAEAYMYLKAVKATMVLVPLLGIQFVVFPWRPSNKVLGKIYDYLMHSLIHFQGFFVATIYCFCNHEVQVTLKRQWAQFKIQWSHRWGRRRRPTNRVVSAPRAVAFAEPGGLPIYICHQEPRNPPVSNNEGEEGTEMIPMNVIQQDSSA

T3: human calcitonin receptor (human, UniProt P30988 25-474)
T3 construct: whole, on cells; Membranes from stably transfected BHK cells; also called hCTR; hCT
T3 sequence (looked up): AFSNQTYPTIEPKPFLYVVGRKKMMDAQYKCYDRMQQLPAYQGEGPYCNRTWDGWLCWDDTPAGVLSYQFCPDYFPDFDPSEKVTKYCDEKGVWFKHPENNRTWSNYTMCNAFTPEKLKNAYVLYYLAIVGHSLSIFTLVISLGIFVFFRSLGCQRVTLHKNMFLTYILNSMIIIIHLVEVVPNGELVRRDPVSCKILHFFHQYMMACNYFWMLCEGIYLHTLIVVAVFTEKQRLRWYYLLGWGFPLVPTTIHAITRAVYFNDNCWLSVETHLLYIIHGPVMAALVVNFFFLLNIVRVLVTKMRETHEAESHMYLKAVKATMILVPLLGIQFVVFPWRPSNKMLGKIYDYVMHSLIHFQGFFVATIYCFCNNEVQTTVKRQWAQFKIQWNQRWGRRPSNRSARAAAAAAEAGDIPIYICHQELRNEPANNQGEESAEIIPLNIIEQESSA

B1: N^ε1-[2-[2-[2-[[2-[2-[2-[[(4S)-4-carboxy-4-(19-carboxynonadecanoylamino)butanoyl]amino]ethoxy]ethoxy]acetyl]amino]ethoxy]ethoxy]acetyl]-[Arg17,Pro21,Pro27,Arg34 … (peptide)
peptide: K([AEEA-AEEA-γGlu-C20 diacid])CNTATCATQRLANFLRHSSPNFGAIPSSTNVGRNTY-NH2
modifications: disulfide 2-7; N-terminus assumed
SMILES: CC[C@H](C)[C@H](NC(=O)[C@H](C)NC(=O)CNC(=O)[C@H](Cc1ccccc1)NC(=O)[C@H](CC(N)=O)NC(=O)[C@@H]1CCCN1C(=O)[C@H](CO)NC(=O)[C@H](CO)NC(=O)[C@H](Cc1c[nH]cn1)NC(=O)[C@H](CCCNC(=N)N)NC(=O)[C@H](CC(C)C)NC(=O)[C@H](Cc1ccccc1)NC(=O)[C@H](CC(N)=O)NC(=O)[C@H](C)NC(=O)[C@H](CC(C)C)NC(=O)[C@H](CCCNC(=N)N)NC(=O)[C@H](CCC(N)=O)NC(=O)[C@@H](NC(=O)[C@H](C)NC(=O)[C@@H]1CSSC[C@H](NC(=O)[C@@H](N)CCCCNC(=O)COCCOCCNC(=O)COCCOCCNC(=O)CC[C@H](NC(=O)CCCCCCCCCCCCCCCCCCC(=O)O)C(=O)O)C(=O)N[C@@H](CC(N)=O)C(=O)N[C@@H]([C@@H](C)O)C(=O)N[C@@H](C)C(=O)N[C@@H]([C@@H](C)O)C(=O)N1)[C@@H](C)O)C(=O)N1CCC[C@H]1C(=O)N[C@@H](CO)C(=O)N[C@@H](CO)C(=O)N[C@H](C(=O)N[C@@H](CC(N)=O)C(=O)N[C@H](C(=O)NCC(=O)N[C@@H](CCCNC(=N)N)C(=O)N[C@@H](CC(N)=O)C(=O)N[C@H](C(=O)N[C@@H](Cc1ccc(O)cc1)C(N)=O)[C@@H](C)O)C(C)C)[C@@H](C)O
notes: also called compound 95
B2: N^ε1-[2-[2-[2-[[2-[2-[2-[[(4S)-4-carboxy-4-(19-carboxynonadecanoylamino)butanoyl]amino]ethoxy]ethoxy]acetyl]amino]ethoxy]ethoxy]acetyl]-[Arg17,Pro21,Pro27,Pro31 … (peptide)
peptide: K([AEEA-AEEA-γGlu-C20 diacid])CNTATCATQRLANFLRHSSPNFGAIPSSTPVGSNTY-NH2
modifications: disulfide 2-7; N-terminus assumed
SMILES: CC[C@H](C)[C@H](NC(=O)[C@H](C)NC(=O)CNC(=O)[C@H](Cc1ccccc1)NC(=O)[C@H](CC(N)=O)NC(=O)[C@@H]1CCCN1C(=O)[C@H](CO)NC(=O)[C@H](CO)NC(=O)[C@H](Cc1c[nH]cn1)NC(=O)[C@H](CCCNC(=N)N)NC(=O)[C@H](CC(C)C)NC(=O)[C@H](Cc1ccccc1)NC(=O)[C@H](CC(N)=O)NC(=O)[C@H](C)NC(=O)[C@H](CC(C)C)NC(=O)[C@H](CCCNC(=N)N)NC(=O)[C@H](CCC(N)=O)NC(=O)[C@@H](NC(=O)[C@H](C)NC(=O)[C@@H]1CSSC[C@H](NC(=O)[C@@H](N)CCCCNC(=O)COCCOCCNC(=O)COCCOCCNC(=O)CC[C@H](NC(=O)CCCCCCCCCCCCCCCCCCC(=O)O)C(=O)O)C(=O)N[C@@H](CC(N)=O)C(=O)N[C@@H]([C@@H](C)O)C(=O)N[C@@H](C)C(=O)N[C@@H]([C@@H](C)O)C(=O)N1)[C@@H](C)O)C(=O)N1CCC[C@H]1C(=O)N[C@@H](CO)C(=O)N[C@@H](CO)C(=O)N[C@H](C(=O)N1CCC[C@H]1C(=O)N[C@H](C(=O)NCC(=O)N[C@@H](CO)C(=O)N[C@@H](CC(N)=O)C(=O)N[C@H](C(=O)N[C@@H](Cc1ccc(O)cc1)C(N)=O)[C@@H](C)O)C(C)C)[C@@H](C)O
notes: also called compound 96
B3: N^ε1-[2-[2-[2-[[2-[2-[2-[[(4S)-4-carboxy-4-(19-carboxynonadecanoylamino)butanoyl]amino]ethoxy]ethoxy]acetyl]amino]ethoxy]ethoxy]acetyl]-[Arg17,Pro21,Pro27,Pro34 … (peptide)
peptide: K([AEEA-AEEA-γGlu-C20 diacid])CNTATCATQRLANFLRHSSPNFGAIPSSTNVGPNTY-NH2
modifications: disulfide 2-7; N-terminus assumed
SMILES: CC[C@H](C)[C@H](NC(=O)[C@H](C)NC(=O)CNC(=O)[C@H](Cc1ccccc1)NC(=O)[C@H](CC(N)=O)NC(=O)[C@@H]1CCCN1C(=O)[C@H](CO)NC(=O)[C@H](CO)NC(=O)[C@H](Cc1c[nH]cn1)NC(=O)[C@H](CCCNC(=N)N)NC(=O)[C@H](CC(C)C)NC(=O)[C@H](Cc1ccccc1)NC(=O)[C@H](CC(N)=O)NC(=O)[C@H](C)NC(=O)[C@H](CC(C)C)NC(=O)[C@H](CCCNC(=N)N)NC(=O)[C@H](CCC(N)=O)NC(=O)[C@@H](NC(=O)[C@H](C)NC(=O)[C@@H]1CSSC[C@H](NC(=O)[C@@H](N)CCCCNC(=O)COCCOCCNC(=O)COCCOCCNC(=O)CC[C@H](NC(=O)CCCCCCCCCCCCCCCCCCC(=O)O)C(=O)O)C(=O)N[C@@H](CC(N)=O)C(=O)N[C@@H]([C@@H](C)O)C(=O)N[C@@H](C)C(=O)N[C@@H]([C@@H](C)O)C(=O)N1)[C@@H](C)O)C(=O)N1CCC[C@H]1C(=O)N[C@@H](CO)C(=O)N[C@@H](CO)C(=O)N[C@H](C(=O)N[C@@H](CC(N)=O)C(=O)N[C@H](C(=O)NCC(=O)N1CCC[C@H]1C(=O)N[C@@H](CC(N)=O)C(=O)N[C@H](C(=O)N[C@@H](Cc1ccc(O)cc1)C(N)=O)[C@@H](C)O)C(C)C)[C@@H](C)O
notes: also called compound 98
B4: N^ε1-[2-[2-[2-[[2-[2-[2-[[(4S)-4-carboxy-4-(19-carboxynonadecanoylamino)butanoyl]amino]ethoxy]ethoxy]acetyl]amino]ethoxy]ethoxy]acetyl]-[Arg17,Pro21,Pro27,His34 … (peptide)
peptide: K([AEEA-AEEA-γGlu-C20 diacid])CNTATCATQRLANFLRHSSPNFGAIPSSTNVGHNTY-NH2
modifications: disulfide 2-7; N-terminus assumed
SMILES: CC[C@H](C)[C@H](NC(=O)[C@H](C)NC(=O)CNC(=O)[C@H](Cc1ccccc1)NC(=O)[C@H](CC(N)=O)NC(=O)[C@@H]1CCCN1C(=O)[C@H](CO)NC(=O)[C@H](CO)NC(=O)[C@H](Cc1c[nH]cn1)NC(=O)[C@H](CCCNC(=N)N)NC(=O)[C@H](CC(C)C)NC(=O)[C@H](Cc1ccccc1)NC(=O)[C@H](CC(N)=O)NC(=O)[C@H](C)NC(=O)[C@H](CC(C)C)NC(=O)[C@H](CCCNC(=N)N)NC(=O)[C@H](CCC(N)=O)NC(=O)[C@@H](NC(=O)[C@H](C)NC(=O)[C@@H]1CSSC[C@H](NC(=O)[C@@H](N)CCCCNC(=O)COCCOCCNC(=O)COCCOCCNC(=O)CC[C@H](NC(=O)CCCCCCCCCCCCCCCCCCC(=O)O)C(=O)O)C(=O)N[C@@H](CC(N)=O)C(=O)N[C@@H]([C@@H](C)O)C(=O)N[C@@H](C)C(=O)N[C@@H]([C@@H](C)O)C(=O)N1)[C@@H](C)O)C(=O)N1CCC[C@H]1C(=O)N[C@@H](CO)C(=O)N[C@@H](CO)C(=O)N[C@H](C(=O)N[C@@H](CC(N)=O)C(=O)N[C@H](C(=O)NCC(=O)N[C@@H](Cc1c[nH]cn1)C(=O)N[C@@H](CC(N)=O)C(=O)N[C@H](C(=O)N[C@@H](Cc1ccc(O)cc1)C(N)=O)[C@@H](C)O)C(C)C)[C@@H](C)O
notes: also called compound 97

How the values were obtained:
[1] = target: T1, rat amylin receptor (rat calcitonin …); test: SPA competition vs 125I-rat amylin, membranes (Assay VI)
rat calcitonin receptor [2] = target: T2, rat calcitonin receptor; test: SPA competition vs 125I-calcitonin, membranes (Assay VIII)
rat calcitonin receptor [3] = target: T2, rat calcitonin receptor; test: ratio of IC50 on rat calcitonin receptor to IC50 on rat amylin receptor
[4] = target: T3, human calcitonin receptor; test: ratio of IC50 on human calcitonin receptor to IC50 on human amylin receptor
Experimental: The resulting pellet was resuspended, homogenized and centrifuged (20.000 rpm, 15 min) in a buffer containing 20 mM Na-HEPES and 0.1 mM EDTA (pH 7.4, buffer 2). The resulting pellet was resuspended in buffer 2 and protein concentration was measured (BCA protein Assay, Pierce). The homogenate was kept cold during the whole procedure. The membranes were kept at −80° C. until use. The assay was performed in a 384 well Optiplate (PerkinElmer) in a total volume of 40 ul. Membranes were mixed with SPA beads. Final concentration of membranes 35 ng/μL final and SPA beads was 0.05 mg/well. Test-compounds were dissolved in DMSO and further diluted in assay buffer (50 mM Hepes, pH 7.4, 1 mM CaCl2, 5 mM MgCl₂, 0.1% OA and 0.02% Tween20). […] The final mixture was incubated with shaking at 400 rpm for 120 min at 25° C. prior to centrifugation (1500 rpm, 10 min). Samples were analyzed on TopCounter™ (Packard). The IC₅₀ was calculated using (one site binding competition analysis) GraphPad Prism5 as a measure of receptor affinity.
Membranes were prepared in the following way; the cells were rinsed with PBS and incubated with Versene for approximately 5 min before harvesting. The cells were flushed with PBS and the cell-suspension was centrifuged for 5 min at 1000 rpm. Cells were homogenized (Ultrathurrax) in a buffer containing 20 mM Na-HEPES and 10 mM EDTA (pH 7.4) and centrifuged at 20.000 rpm for 15 min. The resulting pellet was resuspended, homogenized and centrifuged (20.000 rpm, 15 min) in a buffer containing 20 mM Na-HEPES and 0.1 mM EDTA (pH 7.4, buffer 2). The resulting pellet was resuspended in buffer 2 and protein concentration was measured (BCA protein Assay, Pierce). The homogenate was kept cold during the whole procedure. The membranes were kept at −80° C. until use. Assay was performed in a 384 well Optiplate (PerkinElmer) in a total volume of 40 ul. Membranes were mixed with SPA beads.

| Binder | IC50 [1] [nM] | IC50 (rat calcitonin receptor [2]) [nM] | Ratio rCT/rAmylin binding (rat calcitonin receptor [3]) | Ratio hCT/hAmylin binding [4] |
| --- | --- | --- | --- | --- |
| B1 | 5.45 | 388 | 71.3 | 63.4 |
| B2 | 0.529 | 62.2 | 118 | 79.6 |
| B3 | 0.137 | 24.1 | 176 | 74.1 |
| B4 | 2.24 | 159 | 71.1 | 104 |
